The results in this text go back to the supplement of paper PMC9170038.

The subject of this data set is MS2 coat protein. Briefly: apparent KD of MS2 coat protein; designed switch direction (-1 OFF switch, 1 ON switch): -1; higher = weaker reporter binding. An outline of the steps:
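For each design, the apparent KD is the median over clusters of curves fitted to normalised cluster fluorescence. Clusters held RNA switches with common flanks, transcribed on Illumina chips by stalled E. coli RNA polymerase. These were titrated with SNAP-549-labelled MS2 coat protein, doubling from 0.7 or 1.5 nM to 3 µM, without input, with 200 uM small-molecule ligand, or with an oligonucleotide input.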

The mark [1] stands for this setting: input ligand: microRNA oligo, concentration not stated.
Where [2] appears, read: Eterna round: R95, input ligand: FMN 200 uM.
The mark [3] stands for this setting: Eterna round: R95, input ligand: microRNA oligo, concentration not stated.
Where [4] appears, read: Eterna round: R95, input ligand: none.

In the case of “UAAGAGUGAGGAUAUACGUCGCUGGUCGGGAUGGACGCAUGACAUGAGGAUCACCCAUGUAGAAGGCACAAAAC [Enxela Mod 10 - Jieux - Exclusion 2] (Eterna round: R97, puzzle: Exclusion 2)”, the “apparent KD of MS2 coat protein” value (input ligand: FMN 200 uM) was 0.0876 µM and the “apparent KD of MS2 coat protein” value (input ligand: none) amounted to 0.0254 µM.
As to “UAAGAGUGAGGAUAUGCGUCGCUGGUCCGGAUGGACGCAUGACAUGAGGAUCACCCAUGUAGAAGGCACAAAAC [Enxela Mod 5 - Jieux - Exclusion 2] (Eterna round: R97, puzzle: Exclusion 2)”, the “apparent KD of MS2 coat protein” value stood at 0.0235 µM (input ligand: FMN 200 uM) and 0.0235 µM (input ligand: none).
Regarding “UAAGAUUACCGAGGAUAUGGUAGUUUCUAUUAACCAGAAGGCGGACUCAACAUGAGGAUCACCCAUGUAUAAAGGGUAUUAGAU [JR_ExcNG1_Sub041] (Eterna round: R96, puzzle: Exclusion NG 1)”, the “apparent KD of MS2 coat protein” value runs as follows: (input ligand: FMN 200 uM) 0.0917 µM; under setting [1], 0.0564 µM; (input ligand: none) 0.116 µM.
Take “UAAUAAAAGGAGGAUAUCGUAUCGGAAACGAUACGAGAAGGCUUAACAUGAGGAUCACCCAUGUUCCUCAAUAA [Mat - Exclusion 6 - Eli Mod - D90] (puzzle: Exclusion 6)”: the “apparent KD of MS2 coat protein” value runs as follows: under setting [2], 0.0593 µM; under setting [3], 0.0286 µM; under setting [4], 0.0326 µM.
In the case of “UAAUAUAAGCAAAGAUCCUACAUGAGGAUCACCCAUGUGCUCGUCUUAUAAAGUACUAUCACGAAAGUGAUAGUACA [Mat - Sensor v3 - turn-off var 1 - Eli Mod - D81] (puzzle: Sensor v3, turn-off variant 1)”, the “apparent KD of MS2 coat protein” value is, setting by setting: under setting [2], 0.116 µM; under setting [3], 0.0198 µM; under setting [4], 0.17 µM.
As for “UAAUGUAUAUAGGAUAUCUAGCUGGAAACAGCUAGAGAAGGAUGUACAUGAGGAUCACCCAUGUAAAUCAAUAA [Ex6/9-A1] (Eterna round: R97, puzzle: Exclusion 6)”, the “apparent KD of MS2 coat protein” value reads like this: (input ligand: FMN 200 uM) 0.0575 µM; (input ligand: none) 0.0195 µM.
“UAAUUAAAUGUGAGGAUAUGCUGGUCCUUGGAUCAGCAGAAGGCACAUGAGGAUCACCCAUGUAAUUUAUUUAU [Mat - Exclusion 4 - JL Mod - D59] (puzzle: Brourd's mod of Exclusion 4)”: under setting [3], the “apparent KD of MS2 coat protein” value is 0.0543 µM.
“UAAUUGAUUAAUAGAUUAUACAUGAGGAUCACCCAUGUAGAUCCUACGUGCCAUUUAAGUAGCUCGUCUUAUUAUUA [Sensor-V1 #65] (Eterna round: R97, puzzle: Sensor, turn-off variant 1)”: the “apparent KD of MS2 coat protein” value stood at 0.0594 µM (input ligand: FMN 200 uM) and 0.0645 µM (input ligand: none).
The corresponding values for “UAAUUUUUAGUAAGGAUAUCGGUCCCAAGGGACAACGAGAAGGUACAUGAGGAUCACCCAUGUUACGAAAGAAU [Mod of Zala 10 - Jieux - Brourd's Mod of Exclusion 4] (Eterna round: R97, puzzle: Brourd's mod of Exclusion 4)” are 0.0176 µM and 0.018 µM.
The corresponding values for “UACAAGCUGCUCUAAUAGAACAUGAGGAUCACCCAUGUUGCUAAACAUGAAAGAAUUGGCUCCGCAUGGAUUGCUCG [Eternabot (L2) Solution 9] (Eterna round: R97, puzzle: Sensor, turn-off variant 1)” are 0.0319 µM and 0.0336 µM.
For the sequence “UACAUGAGGAUCACCCAUGUUUUGUCGUGUAUGGUACCCAUCUAGGAUAUCGUGUUAUUUAACCACGAGAAGGAGAGUAUCAAU [MOD4 Solution 21 by JMF] (Eterna round: R96, puzzle: Exclusion NG 3)”, the “apparent KD of MS2 coat protein” value was determined as 0.0224 µM (input ligand: FMN 200 uM), 0.013 µM under setting [1] and 0.0218 µM (input ligand: none).
With “UACAUGAGGAUCACCCAUGUUUUGUCGUGUAUGGUAUUUAUCUAGGAUAUCAAAUUAUUUAUUUAUGAGAAGGAGAAUAUUAAU [JMF's solution 9] (Eterna round: R96, puzzle: Exclusion NG 3)”, the “apparent KD of MS2 coat protein” value (input ligand: FMN 200 uM) turned out to be 0.0379 µM, the “apparent KD of MS2 coat protein” value under setting [1] was 0.0265 µM and the “apparent KD of MS2 coat protein” value (input ligand: none) came to 0.0446 µM.
Regarding “UACAUGAGGAUCACCCAUGUUUUGUCGUGUAUGGUAUUUAUCUAGGAUAUCAAGUUAGUUAUUUAUGAGAAGGAGAAUAUUAAU [JMF's solution 29] (Eterna round: R96, puzzle: Exclusion NG 3)”, the “apparent KD of MS2 coat protein” value by setting is: (input ligand: FMN 200 uM) 0.0425 µM; under setting [1], 0.0307 µM; (input ligand: none) 0.0394 µM.
For the sequence “UACAUGAGGAUCACCCAUGUUUUGUCGUGUAUGGUAUUUAUCUAGGAUAUCAAGUUAUUUAGUUAUGAGAAGGAGAAUAUUAAU [JMF's solution 35] (Eterna round: R96, puzzle: Exclusion NG 3)”, the “apparent KD of MS2 coat protein” value (input ligand: FMN 200 uM) was determined as 0.0315 µM, the “apparent KD of MS2 coat protein” value under setting [1] stood at 0.0316 µM and the “apparent KD of MS2 coat protein” value (input ligand: none) came out at 0.0404 µM.
With “UACAUGAGGAUCACCCAUGUUUUGUCGUGUAUGGUAUUUAUCUAGGAUAUCAAUGUAUAUAUUUAUGAGAAGGAGAAUAUUAAU [JMF's solution 42] (Eterna round: R96, puzzle: Exclusion NG 3)”, the “apparent KD of MS2 coat protein” value is, setting by setting: (input ligand: FMN 200 uM) 0.0374 µM; under setting [1], 0.0251 µM; (input ligand: none) 0.034 µM.
Take “UACAUGAGGAUCACCCAUGUUUUGUCGUGUAUGGUAUUUAUCUAGGAUAUCAAUGUAUUUAUGUAUGAGAAGGAGAAUAUUAAU [JMF's solution 47] (Eterna round: R96, puzzle: Exclusion NG 3)”: under setting [1], the “apparent KD of MS2 coat protein” value turned out to be 0.0323 µM.
For “UACAUGAGGAUCACCCAUGUUUUGUCGUGUAUGGUAUUUAUCUAGGAUAUCAUAUUAUUUAUUUAUGAGAAGGAGAAUAUUAAU [JMF's solution 95] (Eterna round: R96, puzzle: Exclusion NG 3)”, the “apparent KD of MS2 coat protein” value (input ligand: FMN 200 uM) was 0.0458 µM, the “apparent KD of MS2 coat protein” value under setting [1] is 0.0271 µM and the “apparent KD of MS2 coat protein” value (input ligand: none) stood at 0.0269 µM.
Consider “UACAUGAGGAUCACCCAUGUUUUGUCGUGUAUGGUAUUUAUCUAGGAUAUCAUUUUAUUUGGUUAUGAGAAGGAGAAUAUUAAU [JMF's solution 92] (Eterna round: R96, puzzle: Exclusion NG 3)”, for which the “apparent KD of MS2 coat protein” value (input ligand: FMN 200 uM) came to 0.0241 µM, the “apparent KD of MS2 coat protein” value under setting [1] was 0.0227 µM and the “apparent KD of MS2 coat protein” value (input ligand: none) came to 0.0305 µM.
For the sequence “UACAUGAGGAUCACCCAUGUUUUGUCGUGUUUGGUACCCGUUUAGGAUAUCGUGUUAUUGGACCGCGAGAAGGAGAGUAUCUUU [Excl-NG3-LRO07] (Eterna round: R96, puzzle: Exclusion NG 3)”, the “apparent KD of MS2 coat protein” value by setting is: (input ligand: FMN 200 uM) 0.0318 µM; under setting [1], 0.0253 µM; (input ligand: none) 0.0333 µM.
In the case of “UACCGGCGGACCGAAGCUUUUUGCUUGUCUUAUACUACGACAUGAGGAUCACCCAUGUGGUGGUGGUCCGUUGUAGU [JL ViennaUCT Bitein mod 3] (puzzle: Sensor v3, turn-off variant 2)”, the “apparent KD of MS2 coat protein” value reads like this: under setting [2], 0.0483 µM; under setting [3], 0.0131 µM; under setting [4], 0.0521 µM.
As for “UACCUGAGGCUUUGCUUUAGGCUUACAUGAGGAUCACCCAUGUAGGAUAUGGUAGGCUUUGCUUACCAGAAGGACAUGGUAAUU [JL ENG3 1.07] (Eterna round: R96, puzzle: Exclusion NG 3)”, the “apparent KD of MS2 coat protein” value was found to be 0.0909 µM (input ligand: FMN 200 uM), 0.0599 µM under setting [1] and 0.0646 µM (input ligand: none).
Regarding “UACGGGUCAGGAUAUGCGAGGGAGUGGGAAAUAGGAAGGUAGCAGAAGGGACAUGAGGAUCACCCAUGUAAGGA [JR_Exclu4_Sub0100] (puzzle: Exclusion 4)”, the “apparent KD of MS2 coat protein” value stood at 0.0385 µM under setting [2], 0.0312 µM under setting [3] and 0.0346 µM under setting [4].
For “UACUAAAAGGAGGAUAUCGUAUCGGAAACGAUACGAGAAGGCUUAACAUGAGGAUCACCCAUGUUCUUCAAUAU [Mat - Exclusion 6 - Eli Mod - D92] (puzzle: Exclusion 6)” the same measures were 0.0182 µM, 0.016 µM and 0.0148 µM.
“UACUACGCAGGAUAUACAUGAGGAUCACCCAUGUGUCUGCGAUAGGCACGUGAAAUCCGUAGAAGGGUGUAGAU [Exclusion 3 - Oddities v.2] (puzzle: Exclusion 3)”: the “apparent KD of MS2 coat protein” value under setting [3] was found to be 0.0359 µM.
Take “UACUACGCAGGAUAUACAUGAGGAUCACCCAUGUGUCUGCGAUAGGCACGUGAUAUCCGUAGAAGGGUGUAGAU [Exclusion 3 - Oddities v.1] (puzzle: Exclusion 3)”: the “apparent KD of MS2 coat protein” value under setting [3] is 0.0307 µM.
Consider “UACUUAUGAGUCAGGAUAUGUGAGGCGGAAGCGAUACAGAAGGGACAUGAGGAUCACCCAUGUUGGGUUCCUGU [Eternabot (Original) Solution 32] (Eterna round: R97, puzzle: Brourd's mod of Exclusion 4)”, for which the “apparent KD of MS2 coat protein” value worked out at 0.526 µM (input ligand: FMN 200 uM) and 0.0835 µM (input ligand: none).
In the case of “UAGACCGAUGUUAGGAUAUCUGGUCGAGAAAGAAAAGAGAAGGAACAUGAGGAUCACCCAUGUACCCGGGUAAC [Laisbebi] (puzzle: Brourd's mod of Exclusion 4)”, the “apparent KD of MS2 coat protein” value under setting [3] turned out to be 0.0167 µM.
Take “UAGAUGGGAGGAUAUACGUAGAUACAGAUUCGUGUAGUGCUACAUGAGGAUCACCCAUGUAGAAGGCCCGUCUU [JL-ex2-2.23 Mayanne mod] (puzzle: Exclusion 2)”: the “apparent KD of MS2 coat protein” value under setting [3] was found to be 0.0131 µM.
Regarding “UAGCAUUGCCAAAGGUAGUGCAUUACAUGAGGAUCACCCAUGUAGGAUAUGGUAGGCAAAGCUUACCAGAAGGACAUGAUAAUU [Mat - Exclusion NG 3 - Mod of JL - D16] (Eterna round: R96, puzzle: Exclusion NG 3)”, the “apparent KD of MS2 coat protein” value was determined as 0.104 µM (input ligand: FMN 200 uM), 0.0365 µM under setting [1] and 0.0478 µM (input ligand: none).
